Source: article PMC8633249 (2021)

Columns and labels:
[1] = biological target: T1, AGL55, 55-mer A-domain peptide of PAM_(NS88.2) (Streptococcus pyogenes (GAS isolate …)); test: ITC; 25°C
[2] = biological target: T1, AGL55, 55-mer A-domain peptide of …; test: ITC; 4°C
[3] = biological target: T1, AGL55, 55-mer A-domain peptide of …; test: ITC; 37°C

B1: K2hPg, kringle-2 domain of human plasminogen (domain or fragment)
chain: YVEFSEECMHGSGENYDGKISKTMSGLECQAWDSQSPHAHGYIPSKFPNKNLKKNYCRNPDRDLRPWCFTTDPNKRWEYCDIPRCAA
- Kd [1]: 31 nM
- Kd [2]: 2.6 nM
- Kd [3]: 236 nM
